2 molecules from patent US20140208457, “Nuclease Fusion Protein and Uses Thereof” (BASF PLANT SCIENCE COMPANY GMBH, published 2014) can be followed below.

For this series, the target named is T1, P(T46G,Y94F)-L(6)-Ss* PvuII/I-SceI fusion protein (artificial (Proteus vulgaris PvuII; …).
T1 chain: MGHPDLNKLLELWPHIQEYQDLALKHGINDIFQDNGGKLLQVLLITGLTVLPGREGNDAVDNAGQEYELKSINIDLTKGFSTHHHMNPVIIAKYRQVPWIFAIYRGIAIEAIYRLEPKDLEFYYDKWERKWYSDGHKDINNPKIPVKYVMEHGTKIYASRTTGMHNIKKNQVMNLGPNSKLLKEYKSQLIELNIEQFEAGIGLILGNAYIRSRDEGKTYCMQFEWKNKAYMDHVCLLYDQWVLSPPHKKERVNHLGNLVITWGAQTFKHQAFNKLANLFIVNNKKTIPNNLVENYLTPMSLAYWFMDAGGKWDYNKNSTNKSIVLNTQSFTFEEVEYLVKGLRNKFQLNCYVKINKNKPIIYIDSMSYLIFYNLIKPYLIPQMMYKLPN
Nature of the series: EMSA; 1-150 nM enzyme, 2 nM DNA, KG buffer without Mg, room temperature. To be noted: tags: C-terminal Strep-tag (vector pASK-IBA63b-plus), chain copies: 2 (inferred, PvuII homodimer). The method, then: For the determination of binding constants of the fusion enzymes, EMSAs with radioactive labeled PCR-fragments were done. The shift fragments were created via PCR using [α³²P] dATP. One fragment contained the addressed site (S6P6S; A), just an I-SceI site (S; B) or just a PvuII site (P; C). 2 nM of the radiolabeled substrate were incubated with fusion enzyme at concentrations ranging from 1-150 nM in optimized KG Buffer without magnesium for 30 min at room temperature. After adding 1 μl 87% glycerol the samples were loaded onto a 6% polyacrylamid Tris-Acetate (pH 8.5) gel and run for 2 h at 10V/cm. The bands were visualized using the InstantImager system (Packard).

B1: S, I-SceI site only (dsDNA)
DNA 1: TAGGGATAACAGGGTAAT
DNA 2: ATTACCCTGTTATCCCTA
As for B1, the binding result (label: 32P (PCR fragment)) was “no binding”.

B2: S6P6S tripartite site I-SceI-PvuII-I-SceI (dsDNA)
DNA 1: TAGGGATAACAGGGTAATGGTACTCAGCTGATTCATATTACCCTGTTATCCCTA
DNA 2: TAGGGATAACAGGGTAATATGAATCAGCTGAGTACCATTACCCTGTTATCCCTA
For B2, for the setting “label: 32P (EMSA PCR fragment)”, the binding result was “binds”.
